{"source": "paper PMC2132775", "about": "(The Journal of Cell Biology, 1998)", "key": {"[1]": {"molecular_target": "FLA10, the 90-kD subunit of FLA10 kinesin-II (fla10 gene product) (Chlamydomonas reinhardtii (endogenous in flagella)) (UniProt P46869)", "experiment": "SEC + other: sucrose density gradient centrifugation"}, "[2]": {"molecular_target": "FLA10, the 90-kD subunit of FLA10 kinesin-II (fla10 gene product) (Chlamydomonas reinhardtii (endogenous in flagella)) (UniProt P46869)", "experiment": "SEC + other: sucrose density gradient centrifugation", "remark": "listed apart in the source"}, "[3]": {"molecular_target": "T1, FLA10, the 90-kD subunit of FLA10 kinesin-II (fla10 gene product) (Chlamydomonas reinhardtii (endogenous …, UniProt P46869 1-786))", "T1 sequence (looked up)": "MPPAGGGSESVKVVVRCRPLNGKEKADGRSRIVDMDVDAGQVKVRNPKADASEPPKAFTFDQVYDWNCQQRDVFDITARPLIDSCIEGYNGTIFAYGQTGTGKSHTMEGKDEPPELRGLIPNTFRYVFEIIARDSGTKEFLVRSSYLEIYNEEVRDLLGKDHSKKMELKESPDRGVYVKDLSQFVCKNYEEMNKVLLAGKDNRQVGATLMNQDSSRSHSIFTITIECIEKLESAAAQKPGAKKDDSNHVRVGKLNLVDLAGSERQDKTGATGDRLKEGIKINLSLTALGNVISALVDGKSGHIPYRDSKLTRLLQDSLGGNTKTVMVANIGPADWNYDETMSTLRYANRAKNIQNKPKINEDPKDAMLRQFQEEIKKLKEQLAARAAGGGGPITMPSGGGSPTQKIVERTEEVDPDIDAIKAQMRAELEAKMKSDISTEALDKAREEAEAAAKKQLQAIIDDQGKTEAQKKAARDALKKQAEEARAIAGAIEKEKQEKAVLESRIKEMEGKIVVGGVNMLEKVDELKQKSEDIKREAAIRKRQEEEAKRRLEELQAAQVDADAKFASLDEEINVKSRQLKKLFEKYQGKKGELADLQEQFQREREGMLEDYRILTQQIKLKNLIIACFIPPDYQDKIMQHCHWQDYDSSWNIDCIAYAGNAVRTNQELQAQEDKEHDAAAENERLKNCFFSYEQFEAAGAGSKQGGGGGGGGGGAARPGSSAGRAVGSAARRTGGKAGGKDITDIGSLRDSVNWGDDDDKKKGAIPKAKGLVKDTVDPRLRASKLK", "experiment": "SEC + other: sucrose density gradient centrifugation"}, "[4]": {"molecular_target": "T2, p172, IFT particle polypeptide of complex B (Chlamydomonas reinhardtii (endogenous in flagella)), Q5DM57", "T2 chain": "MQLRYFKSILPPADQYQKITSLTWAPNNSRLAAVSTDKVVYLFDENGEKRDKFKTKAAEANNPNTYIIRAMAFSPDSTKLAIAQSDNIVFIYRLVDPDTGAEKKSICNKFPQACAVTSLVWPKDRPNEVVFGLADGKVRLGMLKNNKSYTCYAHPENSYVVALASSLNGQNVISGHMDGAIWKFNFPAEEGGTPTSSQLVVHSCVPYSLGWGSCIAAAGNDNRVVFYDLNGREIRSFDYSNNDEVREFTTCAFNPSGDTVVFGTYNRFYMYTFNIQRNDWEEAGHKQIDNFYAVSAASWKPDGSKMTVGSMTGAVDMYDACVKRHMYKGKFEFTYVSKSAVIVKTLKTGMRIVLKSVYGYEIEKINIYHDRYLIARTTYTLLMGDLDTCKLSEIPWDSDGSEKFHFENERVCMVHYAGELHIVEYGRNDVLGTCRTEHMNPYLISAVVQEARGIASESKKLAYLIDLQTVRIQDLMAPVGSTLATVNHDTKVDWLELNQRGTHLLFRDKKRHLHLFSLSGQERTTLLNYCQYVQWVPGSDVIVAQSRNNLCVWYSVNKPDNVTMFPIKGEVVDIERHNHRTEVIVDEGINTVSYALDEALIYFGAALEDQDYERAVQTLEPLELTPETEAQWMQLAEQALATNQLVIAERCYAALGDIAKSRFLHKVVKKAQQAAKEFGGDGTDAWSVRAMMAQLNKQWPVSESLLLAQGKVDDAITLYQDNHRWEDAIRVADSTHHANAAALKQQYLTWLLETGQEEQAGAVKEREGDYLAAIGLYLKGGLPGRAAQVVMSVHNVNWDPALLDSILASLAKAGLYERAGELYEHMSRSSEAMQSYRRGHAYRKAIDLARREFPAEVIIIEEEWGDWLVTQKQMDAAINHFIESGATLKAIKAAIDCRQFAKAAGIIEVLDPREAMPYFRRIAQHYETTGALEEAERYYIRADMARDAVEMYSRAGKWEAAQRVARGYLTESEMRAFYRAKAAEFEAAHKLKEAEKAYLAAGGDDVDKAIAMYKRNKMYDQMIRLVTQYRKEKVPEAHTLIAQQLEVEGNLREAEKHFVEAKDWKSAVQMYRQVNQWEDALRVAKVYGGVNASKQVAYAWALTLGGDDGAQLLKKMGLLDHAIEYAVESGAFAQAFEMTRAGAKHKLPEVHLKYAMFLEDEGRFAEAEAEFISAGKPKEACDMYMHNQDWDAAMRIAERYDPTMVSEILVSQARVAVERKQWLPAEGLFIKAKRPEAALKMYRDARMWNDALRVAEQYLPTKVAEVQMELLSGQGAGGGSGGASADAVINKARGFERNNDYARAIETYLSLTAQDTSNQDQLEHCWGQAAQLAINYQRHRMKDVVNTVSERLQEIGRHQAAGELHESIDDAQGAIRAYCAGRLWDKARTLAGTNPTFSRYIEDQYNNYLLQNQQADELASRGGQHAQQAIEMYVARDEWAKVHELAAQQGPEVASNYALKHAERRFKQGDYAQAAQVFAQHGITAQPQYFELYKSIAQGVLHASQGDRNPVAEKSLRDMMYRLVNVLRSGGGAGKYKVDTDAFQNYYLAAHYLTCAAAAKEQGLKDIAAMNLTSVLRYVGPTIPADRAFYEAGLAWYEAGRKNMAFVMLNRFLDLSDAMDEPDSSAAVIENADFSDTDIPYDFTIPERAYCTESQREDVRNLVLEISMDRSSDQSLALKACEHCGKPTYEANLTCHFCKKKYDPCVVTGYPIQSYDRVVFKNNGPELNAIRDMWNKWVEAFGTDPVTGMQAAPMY", "experiment": "sucrose density gradient centrifugation", "settings": "remark: other sources report otherwise"}}, "note": "Read-outs that look alike come from different tables or passages of the source.", "data": [{"molecule": "100-kD nonmotor subunit of FLA10 kinesin-II (natural protein)", "values": [{"measurement": "stoichiometry N", "setting": "[1]", "result": 1}, {"measurement": "stoichiometry N", "setting": "[2]", "result": 0.8}]}, {"molecule": "85-kD subunit of FLA10 kinesin-II (natural protein, UniProt A7LGV1 1-768, looked up) MASGGECVKVAVRCRPLNGKEKGDNRATIVEVDNKTGQVTLNNPKGDEPPKTFTFDNAFDWNVTQRDVYDVVARPIVNSVMDGYNGTIFAYGQTGTGKTHTMEGFPTPELQGIIPNCFDHVFETVNSSTGKQWMVRASYLEIYNEEVRDLLSKDPKNKLELKEHKDSGVYVKGLNAFVVKGVPELKNVLEVGKKNRSVGATLMNQDSSRSHSIFTITIETIEQTQAQPEGHIRVGKLNLVDLAGSERQSKTGATGDRLKEATKINLSLSALGNVISALVDGKSGHVPYRDSKLTRLLQDSLGGNTKTIMCANMGPADWNYDETLSTLRYANRAKNIKNKPKINEDPKDAMLREFQDEIARLKAALEAEGGALPEGFATGPGGEIIVEKVVQVPKALDASFLEQMRKDMEEQMKKELASQQAAALNDEQLQKVKEEAAAKAKAEAARLEEEKKKAEEEAARMQRKQQKIKAEMDKKSLDAEQIRAEKEALAKKLKAMESKILKGDQAGGLAEVTKKKEEELKRKEQELERRRKEEEEQRKKIQVMEEQQLAMEDKYKDKADEADQKTKKLKKLWKKFQEVNAEVEDMYKEFQREKEDLLESIRMLQDQMQLKDMVIEAFIPPEEVQKVMKRAHWDDEREVWVLERLSDIGKRETAQGASRRPVSASGQRRPTSDFAKLANAMGDMNPRFKSENILNLELDLPERTTYDYEGPGVDPRVQAAINAAFAEDGELIFVGSEQNVHLGDASAAAARPDSAKKRPASARKGTKK", "values": [{"measurement": "stoichiometry N", "setting": "[3]", "result": 1}]}, {"molecule": "p81, IFT particle polypeptide of complex B, Q68RJ5 1-683 (natural protein) MGDVSYIVDSLGLPPFSYQMSLLSFTEKGPQELLQLLSDVFSTISPKHQKVDVAKEVPDQTADRLIGFLKIIKYRPNVQDPLLFRQLVAAGDRETLYQILRWVVPQAQLLEKRAFVGYYLSFPDMPEEFNFDPDIMELKEEIKAMQQEFIELHKSSDAIKTLSKDTQALKNKIKSLEEEKERLGEKVERAKGAVDKLPDRSSYMEVCTNLRKQQDEEVNLSTAIQTQRALQEKAEASYHRAAARLRELQTSYQEGSAGKLLETLNEDVKNLRAQVNERYPKEVEKRQKRQAALSEALASGISTEMDLQRLQHQATALHNQITEIQERKVAQDKARQGDKAYLQLRQAQQMATVSARKKEELGAKQERLQEKKTALTAQLDKLNAEGGGSGAVFSEEEWRTKYESMKSKLPIYKKMKKELGDLEAEVFVLAHTEELLASQEGGLLEKVKRLEKQQGISGFTETAQHLEKVSEAKSQMDEEKGMTLIEISRTVEEINNAINQRKQQLAPQIKKLRSVRQDFAEFEAKYLEKKTAYDNVVATFEARTSALEGEVSGLKAEVSENETKYHMLHCQLHITDQNIKKVTSGPAAERLRDKYEAKVKEAEDSTKALRDRQREIKDTHSTGLSQIDIMNDMLRLLQLKLNLARGIAVDMSQYGGGGGAAGGANGGMAGQTYDTGSANVLQL", "values": [{"measurement": "stoichiometry N", "setting": "[4]", "result": 1}]}]}
